Measured values taken from a protein production outcome set (Wang et al. 2014).

assay: label from the status in PepcDB records
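Note: failed if final PepcDB status was selected cloned or expressed and not failed if soluble or beyond.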

Sequence | protein production
MLGAPAHRAASAAPVIRRTKGPDMPTRLTALLSPSRPSRPSRDDAAGPVAGTARPARGAGWATALSLALVCFVTYAALSVRLHQRMLTTGYDLGIFEQAVRSYAHGHLPVAELKGPGFPLLGDHFSPVLALLAPLYRVWPAPVTLLVAQAALFAVAVIPLARWAEEVRGRRAALVVGLGYGASWGVAQAVGFDFHEVCFAVPLLALSLTAVGRGRARAAALWALPLLLVKEDLGLTVAVVGLLIARTGERDDRRRGGALVLAGVLGSFLEMLVVIPAFNPGGTFAYSSSVPGAGSATPGAGELLLHYTVGLVTPDTKAQTVLALLSVTGFLAVRSPLLWAALPTLLWRFASDNQAYWGTGYHYSAVLMPVLFAAFVDALTRPGPVRYALAASAAVTVLLLPQFPLWQLTQPATWHTDSRLASARRLMDRIPDGATVAASNRLVPQLTNRARVSVFGLGGSRPDAEWIIDDSAQPQGWPIAPDDDRRLLSEVRNNGRYRTVADQDGYVLLQRRP | failed
MLGEFKHYKTRLAHGGIPQEVQNLLLEYGVEIFAEMLVEGLSRIKRCTDEGRVLMSLDLQVLINGLQHFVPTKVKPKLQIVETFIKAYYLPETEYVHWARAHPEYTKAQVVGLVNLVATMKGWKRKTRLEVIEKIESASM | failed
MLGKDYMLAIILVNCDDDLWGDHSLEVEAGLPPGWRKIHDAAGTYYWHVPSGSTQWQRPTWELGDAEDPGTGTEGIWGLRPPKGRSFSSLESSLDRSNSLSWYGGESYIQSMEPGAKCFAVRSLGWVEVPEEDLAPGKSSIAVNNCIQQLAQTRSRSQPPDGAWGEGQNMLMILKKDAMSLVNPLDHSLIHCQPLVHIRVWGVGSSKGRDRDFAFVASDKDSCMLKCHVFCCDVPAKAIASALHGLCAQILSERVEVSGDASCCSPDPISPEDLPRQVELLDAVSQAAQKYEALYMGTLPVTKAMGMDVLNEAIGTLTARGDRNAWVPTMLSVSDSLMTAHPIQAEASTEEEPLWQCPVRLVTFIGVGRDPHTFGLIADLGRQSFQCAAFWCQPHAGGLSEAVQAACMVQYQKCLVASAARGKAWGAQARARLRLKRTSSMDSPGGPLPLPLLKGGVGGAGATPRKRGVFSFLDAFRLKPSLLHMP | not failed
MLHDTPLITTIVAGLCLAFLLGMIASRLRISPLVGYLLAGVIVGPNTGGFRIDSGIINQLAEIGVILLMFGVGLHFSLKDLLSVKAIAIPAAIAQMAFSTFLGSCLGLIMGWGLSSSVVFGLALSTASTVILLRALQERHLIETEKGRIAVGWLIIEDLAMVLILVLIPSLANILGNTKKEAIDPLIQWLDLSIWGIFGLTILKVILFIILMLVIGRRVIPWLLKVSAHSGSRELFRLSVFATALGVAFGAAHLFGVSLSLGAFFAGMVMSESELSHRAAEESLPLRDAFSVLFFVSVGMLFDPGKILSHFFPLLATLFIIIIGKSAGAFFILKAFRYSNATACTISASLAQIGEFSFILAGLSLSLGLLNNDAHDFILGGAILSILVNPLIFIAFDKIKKHLENLPKNSQDTQKIIDIDPKDPDQEFLPMTSKTNHIVIIGYSRIGKCVALSLINRGDPVVIVEESKRLTDKAIADGFEVICGNIIKQDVMNAANMSNAYKVVITMCNTIEVGECIVNIRDMNKDIQIITHTLSDVDTAYLIDLGADIVVTDEEEIANGVIEHITGQRFIKNIAQS | failed
MLHLQTFGDLRLIETNGDAIRYPIKGLLMMAHLYAGASHELSRYELAQFLWNDVESELARLNLRKLLSRIRETDGGRAEIPFDFTATTVRLNTQAVSSDLDIFRAGGSPLERLNAIAELTQRGFIGNIKPATKLIEAWIRAQRDAQALQLRQALLDALPDAQKPGAARSISGAALQILERDPNDEQVRALLHQLSGGSSLSERLPNGDGHARVQVKRSEAGGETTADIERVSQAPLILPRLVLLPPTSKHADAGLALANALIEDVTIELCALRNISIVAPHTAGQIRRDSEKAAVVARHSIAYLLDTRLSEEGLFAQLVYFPTDEIIWANRFTMTPDILPRQRRLIAQQLTMSVARELAENEEERLRFEANPEAYHAYLVGSSLMSKLTLPHIRRARKAFKQSLSHKADFSPSFTGLARTFTSEWLVTAQGNNELLHLAEQNALRAIERDPASAAGHRELGVTKLYLGDVDASVAALDLAEQLSPHFADVIYSHADTLVHASRPGDALAKIRRAISLNPIAPDAYLWCAAGASFFLEQYEEAIAYVEAMKDKAPAHRIAAASCAMIGDRKRALFHRQRAESINPVFDVEKWLAIVPFKEDWQKELYREGLLKAGF | failed
MLIDKKTQAGVKSIIGWQHCAHFYRQNKLLGLFTKIKRPTKGQRMEEELKQQFDEMGVEPADAVLGRCAELAITYNIHDATEFVEQWMAFSLSHLQGEDPAIENLGDFERKVLQLRKDKAGYKATGQKAKSYGSPSVQDTSSLATYGVMEDDPMLDDYVSESAVDSSALHTPKAKKQSDRTANLKGAALFSPASYTPQSAKRKAGLETPSNSVAGKPGDIVDTFGHPKLLAGSSWQSQMEHTVPVTQKLLHNDAPLTIANLGYMNDLLTDRCHNLRVRFNQTGPALVDKKLGQAGAAECIWYPQDRQVLQSAGGLHAVGMIHSEDDGPLDAHSAFMAVLDDDVEDEMDPTLTLNFSRVKSASIFPGQVVLAKGFIPRGKTFMVEEIHTERKLTPATPLQIDRELQFVVASGPFTDSTDLFYEPLHDLLKYLKDHRPDVLVLTGPFLDADHKMVGELAETFDTFFEKMIGGIMESIGSHTAVLVVTSQKDAMALSVYPTPPPALRRTYPNLYMLPDPSLVDLDGFTLGVTSTDVVDHLLSHEFAVNAGERMHRAINHLFHQGSFYPLYPPADEDMAYDSQLALKYAQLKQLPNVLILPSDQRHFIRLVNDCLVINPGRVADKKGGTFARFLVAPSVPGKAANMFNSVACQVQRI | failed
MLIDPIELYRYPEKWIKDRDAEKKVRSGLYILTEDGYLRRGITTGTTASAAAVAAIASLKEKVEKVKVSTPAGVDVEVEVEAEKGFARVRKFSGDHEFDVTNGIIFEAEVCETSGIFFGRGVGVKAGEKAVSRSAKLQILENFIKASREFNFSGGVRISVPDGEEVAKKTGNEKVGIKGGISILGTTGFVEPWCKKLVETKLKIAMQYHRIAITTGRKAWLYARKKFPEYQPFVFGVHIDEALKHPGEKIIVGFPGLLKIWAGSRDRIEERAREEGVRVVVIEDDMDSWVWDVQGTDH | not failed
MLIFKIFRRSEWDDFRRAGATAGAPVDLADGYIHFSTAAQVAETAAKHFTAESDLVLVAIDPDRAGPDLKWEPSRGEQLFPHLYRRLTLDDVVWDKSLPLGATGHIFPEGLWLEHHHHHH | not failed
MLIKRLAFAIMTLVIMTSAGCGFKLQRSYQIPEQLNQLSLSSSDEYSELTRLVRERLRLNNVKIVDAANDVPVLRLITDSLERSTLSLYPTGNVAEYELIYFVEFAVALPGKEAQPFKIEIRRDYLDDPRTALAKSREMELLVKEMRIQAADRILQSMASTEVNLEHHHHHH | not failed
MLILSTEKEPNFEYEEITRSFLSNMLAFTRGHFTGDISHFSPIVLAEMEKDPNWLEEAAGGMQGVIVQSLLEDENFSSVEQLKGELARLIRLYFALAKDNLTENQESLYVDLFDKFTFLLLCSDEFIMYLDSQPKF | not failed
MLIRAIPFVFVILWASGFVGARFGLQYAEPATLLSIRMAFNVLLFLVLVAVLRRRLPTGTDFWHSCVVGALIHGFYLGGTYFAIALGMPAGLSSLLVGIQPILTAALLVAFVREEFKPSQWLGLALGFVGIAMVLMGKMEWQSEQHKVLAIGLCLLALVGITLGTLYQKKHCQQVDMVGGATVQYLAALIMFLPVAMQFETMQVQWELEFILTVLWLVVVLSCVAILLLLYMVRNGASSSVASVFYLVPPTTAIQAWLAFGESFDWMGISGFVLAATAVYLVVKKPDLTIKKAIKTEYT | failed
MLIREAKLAGTPEQFAQLDAAIRTAQCVHNRCLRYWRDNAGVSKNDLQKFCAVLAKDAEQPWMGLLNSQARQAAAERTWQSIQSFYRRCKEGAKHKGYPKFKKHSRSVEYKTSGWKLSDDGMSITFTDGFKAGQLELWLDGSARQLILSSKINRVRVVRRADGYYAQFCLDVERQEAGVYSGNVIGLDLGLKYFTKDSNGAEVACPKFFRKGEKRLRRAQRRLSKRFKKGAKPQSKNYHKQRQRIGKVHLKIQRQRKSWAIEQARRVMVSNDIVVYEDLRVPNLVRSRHLAKSIHDAGWTQFTHWLDYYGKLWRKVVVAVNPAYTSQDCSGCGYRVQKSLSTRTHDCPHCGLTICRDQNAALNILKRGLEVVGAEWNNGTAGHAETGSQEQTTGEISTSAEVGQPTSVSAVAEPVRTSREAV | failed
